Assay [1] deals with T1, TNFα (human, UniProt P01375 77-233).
T1 construct: also called human TNFα
The experiment in a line: SPR (Biacore), antibody captured on Protein A, TNFα as analyte, single cycle kinetics, 1:1 model, 25 °C. (In general: Surface plasmon resonance follows binding to a sensor surface in real time, without labels.)
Procedure: Affinity to TNFα was measured by Biacore. A CM5 chip was prepared using standard amine immobilisation Biacore procedures. Upon insertion of a CM5 chip the system was primed and then normalised with BIA-normalising solution (Biacore Preventative Maintenance Kit 2). The chip was added to the system with Phosphate Buffered Saline Tween-20 (PBS-T) running buffer; prior to immobilisation the chip surface was primed with three injections of 50 mM NaOH. Protein A was immobilised on the chip surface. For this, the protein was diluted to 5 μg/mL into 10 mM acetate buffer at pH 4.5 and injected so to generate a bound response of ˜1000 RU's in all 4 flow cells. To remove non-covalently bound material from all the chip flow cells, three 15 second 50 mM NaOH washes were performed. On the Protein A chip, antibody was captured in flow cells 2 and 4, with flow cells 1 and 3 used for reference subtraction. The trial antibodies were diluted in PBS-T to 10 nM and 2.5-7.5 uL injected to obtain 120 RU of captured antibody. […] For each single cycle analysis cycle a titration of 5 analyte concentrations were injected over the ligand and then the dissociation of the complex was measured. The surface was regenerated using glycine pH 1.7. A double referencing method was employed in which data from the ligand bound capture surface (fc 2 and 4) were subtracted from the references surfaces where no ligand was captured (fc 1 and 3 respectively). Blank injections of buffer were run every 3-4 cycles and then subtracted from analyte injection cycles, to correct for small changes in the ligand capture surface. Repeat injections of analyte at the start and end of each analytical run were used to check for sample degradation, or changes in the instrument performance. All analysis was performed at 25° C. and the sample rack was incubated at 10° C. during experimental runs. Each experiment was run at least three times. A 1-to-1 binding model was used to fit the resulting kinetic data.

In assay [2] the target is T2, monomeric His-tagged human FcRn (human, UniProt P55899 24-297; P61769 21-119).
T2 construct: The b2m chain is an addition from general knowledge; also called hFcRn; neonatal Fc receptor
Briefly: SPR, pH 6.0, KD against that of Ab-wt; pH 6.0; KD ratio to Ab-wt.
Procedure: (§1) SPR was performed using a Biacore 3000 instrument with CM5 sensor chips coupled with anti-TNFα IgG1 antibodies (˜500 resonance units (RU)) using amine-coupling chemistry as described by the manufacturer. The coupling was performed by injecting 2.0 ug/mL of each protein in 10 mM sodium acetate, pH 4.5, using the amine-coupling kit (GE Healthcare). […] All SPR experiments were conducted at 25° C. with a flow rate of 40 ul/min. Binding data were zero-adjusted, and reference cell value subtracted. The Langmuir 1:1 ligand binding model provided by the BlAevaluation software (version 4.1) was used to determine the binding kinetics.

Assay [3] has as its target T2, monomeric His-tagged human FcRn. Briefly: SPR (Biacore 3000), antibody amine-coupled, monomeric His-tagged hFcRn as analyte, pH 6.0, 1:1 Langmuir model, 25 °C; pH 6.0.
Procedure: as §1
The target in assay [4] is T1, TNFα. Briefly: cell-based or functional assay.
Assay [5] addresses T2, monomeric His-tagged human FcRn. The experiment in a line: SPR, pH 6.0, KD against that of infliximab; pH 6.0; KD ratio to IFX.
Procedure: as §1
The target in assay [6] is T3, CD16a(F) (UniProt P08637 17-208).
T3 construct: Captured on an anti-His tag chip, so it carried a His tag
Briefly: SPR (Biacore), His-tagged FcγR captured on anti-His chip, antibody as analyte, single cycle kinetics, 25 °C.
Procedure: (§2) Affinity to FcγRs was measured by Biacore. A CM5 chip was prepared using standard amine immobilisation Biacore procedures. Upon insertion of a CM5 chip the system was primed and then normalised with BIA-normalizing solution (Biacore Preventative Maintenance Kit 2). The chip was added to the system with PBS-T running buffer; prior to immobilisation the chip surface was primed with three injections of 50 mM NaOH. FcγRs were immobilised on the chip surface using a His-tag capture system. The anti-His tag chip was prepared according to the Biacore kit instructions, with ˜12000 RU's of the antibody deposited on all 4 flow cells. To remove non-covalently bound material from all the chip flow cells, three 30 second 10 mM glycine pH 1.5 washes were performed. The Fcγ receptors were diluted in PBS-T to a range of 0.5-2 μg/mL, with 2.5-5.0 μL injected onto the chip generating capture levels between 60 and 200 RU's. Antibodies were diluted into PBS-T prior to analysis. Single cycle kinetics were used to estimate the steady state affinity. For each single cycle analysis cycle a titration of 5 antibody concentrations were injected over the FcγR ligand and then the dissociation of the complex was measured. The surface was regenerated using the recommended solution, 10 mM glycine pH 1.5 for the anti-His capture surface. A double referencing method was employed in which data from the ligand bound capture surface (fc 2 and 4) were subtracted from the references surfaces where no ligand was captured (fc 1 and 3 respectively). Blank injections of buffer were run for every antibody titration cycle and then subtracted from analyte injection cycles, to correct for small changes in the ligand capture surface. All analysis was performed at 25° C. and the sample rack was incubated at 10° C. during experimental runs. Each experiment was run at least three times.

For assay [7], the target named is T4, CD16b(NA2) (UniProt O75015 17-200, limits assumed).
T4 construct: Captured on an anti-His tag chip, so it carried a His tag
The description is as above.
Procedure: as §2

Assay [8] deals with T5, CD16a(V) (UniProt P08637 17-208).
T5 construct: Captured on an anti-His tag chip, so it carried a His tag; also called Fcγ receptor CD16a(V)
Described as above.
Procedure: as §2

The text below walks through data of patent publication US20230295288A1 (TILLOTTS PHARMA, published 2023).

Changes are numbered by the printed parent chain.

T4 sequence (O75015 17-200 N65S limits assumed): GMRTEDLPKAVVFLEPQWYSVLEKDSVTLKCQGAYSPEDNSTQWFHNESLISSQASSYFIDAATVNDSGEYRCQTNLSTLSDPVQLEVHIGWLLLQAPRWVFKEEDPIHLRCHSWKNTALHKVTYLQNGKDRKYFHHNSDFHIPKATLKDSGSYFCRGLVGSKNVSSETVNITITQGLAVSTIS
T5 sequence (P08637 17-208 F176V limits assumed): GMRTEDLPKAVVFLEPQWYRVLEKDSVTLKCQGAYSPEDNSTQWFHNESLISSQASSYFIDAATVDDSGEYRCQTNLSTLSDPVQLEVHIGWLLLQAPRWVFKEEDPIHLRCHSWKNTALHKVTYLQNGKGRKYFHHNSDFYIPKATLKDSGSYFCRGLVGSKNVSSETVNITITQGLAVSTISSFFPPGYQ
T1 sequence (P01375 77-233 limits assumed): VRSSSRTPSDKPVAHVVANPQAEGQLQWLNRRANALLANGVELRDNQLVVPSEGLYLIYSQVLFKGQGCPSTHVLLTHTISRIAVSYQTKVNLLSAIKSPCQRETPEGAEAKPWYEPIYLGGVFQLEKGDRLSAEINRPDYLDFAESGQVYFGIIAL
T2 sequence (P55899 24-297 limits assumed, chain 1 of 2): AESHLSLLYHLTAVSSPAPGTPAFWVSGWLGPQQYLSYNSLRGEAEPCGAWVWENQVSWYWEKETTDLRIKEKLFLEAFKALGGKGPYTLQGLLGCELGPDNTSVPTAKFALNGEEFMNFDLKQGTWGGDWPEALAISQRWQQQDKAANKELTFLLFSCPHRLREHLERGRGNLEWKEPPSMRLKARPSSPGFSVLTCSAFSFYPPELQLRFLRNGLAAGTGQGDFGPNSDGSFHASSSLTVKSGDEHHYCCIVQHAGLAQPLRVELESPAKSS
T2 sequence (P61769 21-119 limits assumed, chain 2 of 2): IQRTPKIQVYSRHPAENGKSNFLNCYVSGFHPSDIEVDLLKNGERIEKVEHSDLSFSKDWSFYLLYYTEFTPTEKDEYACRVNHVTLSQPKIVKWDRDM
T3 sequence (P08637 17-208 limits assumed): as the sequence (P08637 17-208 F176V limits assumed) above, with V160F counted along it

B1: Ab-A-DLE-PVAΔG (antibody, human IgG1, kappa)
heavy: EVQLVESGGGLVQPGGSLRLSCKASGIDFNNYGIGWVRQAPGKGLEWITYIYPGFAITNFANSVKGRFTISSDNSKNTVYLQMNSLRAEDTAVYYCARDPVYATSSGYFDLWGQGTLVTVSSASTKGPSVFPLAPSSKSTSGGTAALGCLVKDYFPEPVTVSWNSGALTSGVHTFPAVLQSSGLYSLSSVVTVPSSSLGTQTYICNVNHKPSNTKVDKKVEPKSCDKTHTCPPCPAPPVAGPDVFLFPPKPKDTLMISRTPEVTCVVVDVSHEDPEVKFNWYVDGVEVHNAKTKPREEQYNSTYRVVSVLTVLHQDWLNGKEYKCKVSNKALPLPEEKTISKAKGQPREPQVYTLPPSREEMTKNQVSLTCLVKGFYPSDIAVEWESNGQPENNYKTTPPVLDSDGSFFLYSKLTVDKSRWQQGNVFSCSVMHEALHAHYTQKSLSLSPGK
light: DIQMTQSPSSLSASVGDRVTIKCQASQSIFSGLAWYQQKPGKAPKLLIYGASKLASGVPSRFSGSGSGTEFTLTISGLQPADFATYYCQSYYYSSSSSDGSYAFGGGTKLTVLGRTVAAPSVFIFPPSDEQLKSGTASVVCLLNNFYPREAKVQWKVDNALQSGNSQESVTEQDSKDSTYSLSSTLTLSKADYEKHKVYACEVTHQGLSSPVTKSFNRGEC
In the case of B1, the Kd (commonly the constant that tells how readily two partners part at equilibrium) in assay [1] was 0.00288 nM; in assay [3], 157 nM; in assay [6] it was 110 nM; in assay [7] it was 470 nM; in assay [8], 68.7 nM. Further, the koff (usually a measure of how fast the partners let go of each other) in assay [1] is 3.04e-05 s⁻¹. Also, the kon (as a rule, the second-order rate constant of association) in assay [1] came to 1.13e+07 M⁻¹ s⁻¹. For the same molecule, the “Fold change from wt” value in assay [2] is 6.4 fold. Further, the “IC50 (read off the curve), L929 TNFα neutralisation [upper panel]” value in assay [4] was approximately 7 ng/mL. In assay [5], the “Fold change from IFX” value was found to be 2.7 fold.

B2: Ab-wt (antibody, human IgG1, kappa)
heavy: not shown
light: B1 light
notes: Human IgG1 anti-TNFα antibody with a wild-type Fc region; also called parent antibody; wild-type antibody
As to B2, the Kd in assay [1] was 0.00413 nM; in assay [3], 1000 nM; in assay [7], more than 3000 nM; in assay [8], 184 nM. The same molecule displayed a koff in assay [1] of 3.45e-05 s⁻¹. For the same molecule, the on-rate (kon) in assay [1] turned out to be 8.37e+06 M⁻¹ s⁻¹. In addition, the “IC50 (read off the curve), L929 TNFα neutralisation [lower panel]” value (from here on “IC50 (read off the curve) … [lower panel]”) in assay [4] was approximately 7 ng/mL.

B3: Ab-A-AEA-PVAΔG (antibody, human IgG1, kappa)
heavy: B1 heavy with D243S, K330A, L334A, E337A
light: B1 light
Consider B3, for which, in assay [1], the Kd is 0.00251 nM, the koff is 2.19e-05 s⁻¹ and the kon amounted to 9.16e+06 M⁻¹ s⁻¹. Besides, in assay [4], the “IC50 (read off the curve) … [lower panel]” value is approximately 9 ng/mL. Besides, the Kd in assay [7] amounted to 5180 nM. The molecule also gave a Kd in assay [8] of 260 nM.

B4: Ab-YTE-DLE-PVAΔG (antibody, human IgG1, kappa)
heavy: B1 heavy with M256Y, S258T, T260E, A438N
light: B1 light
As to B4, the Kd worked out at 0.00157 nM in assay [1], 90 nM in assay [3], 1030 nM in assay [7] and 117 nM in assay [8]. In addition, in assay [1], the koff was determined as 1.28e-05 s⁻¹. In assay [1], this molecule gave a kon of 8.14e+06 M⁻¹ s⁻¹. Further, in assay [2], the “Fold change from wt” value turned out to be 11.1 fold. The “IC50 (read off the curve) … [lower panel]” value in assay [4] is approximately 6 ng/mL. For the same molecule, the “Fold change from IFX” value in assay [5] came out at 4.7 fold.
